This is an account of results in US20080058263A1 (published 2008).

Experiment in all cases: receptor-Fc IP
The target of one assay is T1, VEGFR-1-Fc (UniProt P17948 27-338).
T1 construct: domain: first three Ig domains; expressed in Drosophila S2 cells, purified on Protein A sepharose; also called VEGFR-1-Fc fusion protein; not shown: Fc fragment from the Signal-pIgPlus vector
The method in brief:
(§1)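 fusion protein at 400 ng/ml in an IP mix (PBS, 1.5% BSA, 0.06% Tween 20, 3 μg/ml heparin) was combined with sample supernatant at a 1:2 ratio. Bound ligand captured by immunoprecipitation with pentahistidine antibody.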

The next assay concerns the target T2, VEGFR-2-Fc (UniProt P35968 20-322).
T2 construct: domain: first 3 Ig domains; conditioned supernatant of 293T cells; also called VEGFR-2-Fc fusion protein; not shown: Fc fragment of the pIg vector
The method in brief: as §1

For a further assay, the target named is T3, VEGFR-3-Fc (UniProt P35916 25-328).
T3 construct: domain: first three Ig domains; conditioned supernatant of 293T cells; also called VEGFR-3-Fc fusion protein; not shown: Fc fragment of the pIg vector
T3 sequence (looked up): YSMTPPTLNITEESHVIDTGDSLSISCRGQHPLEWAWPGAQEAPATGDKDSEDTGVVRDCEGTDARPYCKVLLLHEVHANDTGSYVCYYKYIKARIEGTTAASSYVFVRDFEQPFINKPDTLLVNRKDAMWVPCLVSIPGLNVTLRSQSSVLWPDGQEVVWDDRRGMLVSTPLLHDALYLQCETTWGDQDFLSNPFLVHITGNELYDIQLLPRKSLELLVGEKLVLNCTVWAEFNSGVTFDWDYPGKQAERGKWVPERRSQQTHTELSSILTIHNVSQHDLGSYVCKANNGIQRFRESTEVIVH
A digest of the protocol: as §1

T1 sequence (P17948 27-338): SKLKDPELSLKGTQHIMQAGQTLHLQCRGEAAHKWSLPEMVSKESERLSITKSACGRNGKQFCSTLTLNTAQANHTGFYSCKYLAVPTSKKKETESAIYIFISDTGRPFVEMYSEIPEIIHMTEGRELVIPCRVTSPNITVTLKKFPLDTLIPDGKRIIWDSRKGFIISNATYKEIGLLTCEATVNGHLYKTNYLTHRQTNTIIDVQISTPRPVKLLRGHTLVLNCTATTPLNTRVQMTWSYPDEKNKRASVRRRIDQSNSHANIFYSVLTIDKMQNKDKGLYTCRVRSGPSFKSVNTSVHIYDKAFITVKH
T2 sequence (P35968 20-322): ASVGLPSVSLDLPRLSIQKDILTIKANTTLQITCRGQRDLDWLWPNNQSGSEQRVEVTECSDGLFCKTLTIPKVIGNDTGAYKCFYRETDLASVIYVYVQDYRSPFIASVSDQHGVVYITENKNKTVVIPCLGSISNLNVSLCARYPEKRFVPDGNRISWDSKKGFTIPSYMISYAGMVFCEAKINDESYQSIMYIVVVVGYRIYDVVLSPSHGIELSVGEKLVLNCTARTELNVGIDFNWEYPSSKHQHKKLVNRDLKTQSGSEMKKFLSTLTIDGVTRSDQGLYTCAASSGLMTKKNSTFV

B1: 43-7 (ligand)
chain: AHYNTEILKFMDVYQRSYCHPREVCIDVGKEYPDEIEYIFKPPCVSVYRCGGCCNSEGLQCVPTEESNITMQIMRIKPHQGQHIGEMSFANHTSCRCMSKLD
Regarding B1, the binding result with VEGFR-1-Fc, with VEGFR-2-Fc and in the assay with VEGFR-3-Fc was “no binding” each time.

B2: 41-7 (ligand)
chain: AHYNTEILKFMDVYQRSYCHPREVCIDVGKEYPDEIEYIFKPSCVPLMRCGGCCNSEGLQCVPTEESNITMQIMRIKPHQGQHIGEMSFANHTSCRCMSKLD
Take B2: the binding result with VEGFR-1-Fc, with VEGFR-2-Fc and with VEGFR-3-Fc was “no binding” in each case.

B3: 83-5 (ligand)
chain: AHYNTEILKFMDVYQRSYCHPIETLVDIFQEYPDEIEYIFKPPCVSVYRCGGCCNDEGLECVPTEESNITMQIMRIKPHQGQHIGEMSFANHTSCRCMSKLD
As for B3, the binding result in the assay with VEGFR-1-Fc is “binds”; with VEGFR-2-Fc, “binds”; with VEGFR-3-Fc, “no binding”.

B4: 63-7 (ligand)
chain: GQNHHEVVKFMDVYQRSYCHPREVCIDVGKEYPDEIEYIFKPPCVSVYRCGGCCNSEGLQCVPTEESNITMQIMRIKPHQGQHIGEMSFANHTSCRCMSKLD
On to B4, for which the binding result with VEGFR-1-Fc is given as “no binding”; with VEGFR-2-Fc, “binds”; with VEGFR-3-Fc it was “binds”.

B5: 83-3 (ligand)
chain: AHYNTEILKFMDVYQRSYCHPIETLVDIFQEYPDEIEYIFKPPCVSVYRCGGCCNSEGLQCVPTEESNITMQIMRIKPHQGQHIGEMSFLQHNKCECRPKKD
As for B5, the results for the binding result in the assay with VEGFR-1-Fc, in the assay with VEGFR-2-Fc and in the assay with VEGFR-3-Fc were “binds”, “binds” and “no binding”, respectively.

B6: 44-5 (ligand)
chain: AHYNTEILKFMDVYQRSYCHPREVCIDVGKEFGVATNTFFKPSCVPLMRCGGCCNDEGLECVPTEESNITMQIMRIKPHQGQHIGEMSFANHTSCRCMSKLD
B6: the binding result in the assay with VEGFR-1-Fc, in the assay with VEGFR-2-Fc and with VEGFR-3-Fc was “no binding” each time.

B7: 43-5 (ligand)
chain: AHYNTEILKFMDVYQRSYCHPREVCIDVGKEYPDEIEYIFKPPCVSVYRCGGCCNDEGLECVPTEESNITMQIMRIKPHQGQHIGEMSFANHTSCRCMSKLD
Regarding B7, the binding result in the assay with VEGFR-1-Fc, with VEGFR-2-Fc and in the assay with VEGFR-3-Fc was “no binding” throughout.

B8: 81-1 (ligand)
chain: AHYNTEILKFMDVYQRSYCHPIETLVDIFQEYPDEIEYIFKPSCVPLMRCGGCCNDEGLECVPTEESNITMQIMRIKPHQGQHIGEMSFLQHNKCECRPKKD
Consider B8, for which the binding result with VEGFR-1-Fc was “binds”; in the assay with VEGFR-2-Fc, “binds”; with VEGFR-3-Fc, “no binding”.

B9: 42-7 (ligand)
chain: AHYNTEILKFMDVYQRSYCHPREVCIDVGKEFGVATNTFFKPPCVSVYRCGGCCNSEGLQCVPTEESNITMQIMRIKPHQGQHIGEMSFANHTSCRCMSKLD
For B9, the binding result in the assay with VEGFR-1-Fc, with VEGFR-2-Fc and with VEGFR-3-Fc was “no binding” each time.

B10: 61-7 (ligand)
chain: GQNHHEVVKFMDVYQRSYCHPREVCIDVGKEYPDEIEYIFKPSCVPLMRCGGCCNSEGLQCVPTEESNITMQIMRIKPHQGQHIGEMSFANHTSCRCMSKLD
Regarding B10, the binding result in the assay with VEGFR-1-Fc, with VEGFR-2-Fc and with VEGFR-3-Fc was “no binding” in each case.

B11: 83-7 (ligand)
chain: AHYNTEILKFMDVYQRSYCHPIETLVDIFQEYPDEIEYIFKPPCVSVYRCGGCCNSEGLQCVPTEESNITMQIMRIKPHQGQHIGEMSFANHTSCRCMSKLD
B11: the values for the binding result with VEGFR-1-Fc, with VEGFR-2-Fc and with VEGFR-3-Fc were “binds”, “binds” and “no binding”, respectively.

B12: 63-3 (ligand)
chain: GQNHHEVVKFMDVYQRSYCHPREVCIDVGKEYPDEIEYIFKPPCVSVYRCGGCCNSEGLQCVPTEESNITMQIMRIKPHQGQHIGEMSFLQHNKCECRPKKD
Consider B12, for which the figures for the binding result in the assay with VEGFR-1-Fc, with VEGFR-2-Fc and with VEGFR-3-Fc were “no binding”, “binds” and “no binding”, respectively.

B13: 61-5 (ligand)
chain: GQNHHEVVKFMDVYQRSYCHPREVCIDVGKEYPDEIEYIFKPSCVPLMRCGGCCNDEGLECVPTEESNITMQIMRIKPHQGQHIGEMSFANHTSCRCMSKLD
In the case of B13, the binding result with VEGFR-1-Fc, with VEGFR-2-Fc and in the assay with VEGFR-3-Fc was “no binding” throughout.

B14: 44-3 (ligand)
chain: AHYNTEILKFMDVYQRSYCHPREVCIDVGKEFGVATNTFFKPSCVPLMRCGGCCNSEGLQCVPTEESNITMQIMRIKPHQGQHIGEMSFLQHNKCECRPKKD
Turning to B14, the binding result in the assay with VEGFR-1-Fc, in the assay with VEGFR-2-Fc and in the assay with VEGFR-3-Fc was “no binding” each time.

B15: 81-3 (ligand)
chain: AHYNTEILKFMDVYQRSYCHPIETLVDIFQEYPDEIEYIFKPSCVPLMRCGGCCNSEGLQCVPTEESNITMQIMRIKPHQGQHIGEMSFLQHNKCECRPKKD
Regarding B15, the binding result with VEGFR-1-Fc is on record as “binds”; with VEGFR-2-Fc, “binds”; in the assay with VEGFR-3-Fc it was “no binding”.

B16: 81-7 (ligand)
chain: AHYNTEILKFMDVYQRSYCHPIETLVDIFQEYPDEIEYIFKPSCVPLMRCGGCCNSEGLQCVPTEESNITMQIMRIKPHQGQHIGEMSFANHTSCRCMSKLD
Turning to B16, the binding result is “binds” with VEGFR-1-Fc, “binds” with VEGFR-2-Fc and “no binding” in the assay with VEGFR-3-Fc.

B17: 81-5 (ligand)
chain: AHYNTEILKFMDVYQRSYCHPIETLVDIFQEYPDEIEYIFKPSCVPLMRCGGCCNDEGLECVPTEESNITMQIMRIKPHQGQHIGEMSFANHTSCRCMSKLD
In the case of B17, the binding result was “binds” in the assay with VEGFR-1-Fc, “binds” in the assay with VEGFR-2-Fc and “no binding” with VEGFR-3-Fc.

B18: 61-1 (ligand)
chain: GQNHHEVVKFMDVYQRSYCHPREVCIDVGKEYPDEIEYIFKPSCVPLMRCGGCCNDEGLECVPTEESNITMQIMRIKPHQGQHIGEMSFLQHNKCECRPKKD
On to B18, for which the binding result is “binds” with VEGFR-1-Fc, “no binding” in the assay with VEGFR-2-Fc and “no binding” with VEGFR-3-Fc.

B19: 44-1 (ligand)
chain: AHYNTEILKFMDVYQRSYCHPREVCIDVGKEFGVATNTFFKPSCVPLMRCGGCCNDEGLECVPTEESNITMQIMRIKPHQGQHIGEMSFLQHNKCECRPKKD
Regarding B19, the binding result with VEGFR-1-Fc, with VEGFR-2-Fc and with VEGFR-3-Fc was “no binding” each time.

B20: 61-3 (ligand)
chain: GQNHHEVVKFMDVYQRSYCHPREVCIDVGKEYPDEIEYIFKPSCVPLMRCGGCCNSEGLQCVPTEESNITMQIMRIKPHQGQHIGEMSFLQHNKCECRPKKD
In the case of B20, the binding result is given as “binds” in the assay with VEGFR-1-Fc, “no binding” with VEGFR-2-Fc and “no binding” in the assay with VEGFR-3-Fc.

B21: 44-7 (ligand)
chain: AHYNTEILKFMDVYQRSYCHPREVCIDVGKEFGVATNTFFKPSCVPLMRCGGCCNSEGLQCVPTEESNITMQIMRIKPHQGQHIGEMSFANHTSCRCMSKLD
On to B21, for which the binding result with VEGFR-1-Fc, with VEGFR-2-Fc and with VEGFR-3-Fc was “no binding” each time.

B22: 83-9 (ligand)
chain: AHYNTEILKFMDVYQRSYCHPIETLVDIFQEYPDEIEYIFKPPCVSVYRCGGCCNDEGLECVPTEESNITMQIMRITVPLSQGPKPVTISFLQHNKCECRPKKD
For B22, the binding result with VEGFR-1-Fc is “binds”; in the assay with VEGFR-2-Fc it was “no binding”; with VEGFR-3-Fc, “no binding”.

B23: 83-1 (ligand)
chain: AHYNTEILKFMDVYQRSYCHPIETLVDIFQEYPDEIEYIFKPPCVSVYRCGGCCNDEGLECVPTEESNITMQIMRIKPHQGQHIGEMSFLQHNKCECRPKKD
With B23, the binding result is “binds” in the assay with VEGFR-1-Fc, “binds” in the assay with VEGFR-2-Fc and “no binding” in the assay with VEGFR-3-Fc.
